The values below come from patent US20050095242A1 (published 2005).

The target of assay [1] is T1, BSA-Compound 1 conjugate (human CCR4 extracellular region peptide Compound 1 conjugated to bovine serum … (human, also: conjugated to BSA via SMCC)).
T1 construct: Coated antigen of the ELISA; also called CCR4 partial peptide
T1 peptide: DESIYSNYYLYESIPKPC
The experiment in a line: ELISA, COS-7 culture supernatant on BSA-Compound 1 conjugate. On the procedure: Into a 96 well ELISA plate (manufactured by Greiner), 0.05 μg/ml of the prepared conjugate was dispensed in at 50 μl/well and allowed to stand at 4° C. overnight for adsorption. After washing with PBS, PBS containing 1% BSA (hereinafter referred to as “1% BSA-PBS”) was added thereto at 100 μl/well and allowed to react at room temperature for 1 hour to block the remaining active groups. After washing each well with PBS containing 0.05% Tween 20 (hereinafter referred to as “Tween-PBS”), a culture supernatant of the transformant was added at 50 μl/well and allowed to react at room temperature for 1 hour. After the reaction and subsequent washing of each well with Tween-PBS, a peroxidase-labeled goat anti-human IgG(γ) antibody solution (manufactured by American Qualex) diluted 6,000 folds with 1% BSA-PBS was added as a secondary antibody solution at 50 μl/well and allowed to react at room temperature for 1 hour. After the reaction and subsequent washing with Tween-PBS, an ABTS substrate solution (a solution prepared by dissolving 0.55 g of 2,2′-azino-bis(3-ethylbenzothiazoline-6-sulfonic acid) ammonium in 1 liter of 0.1 M citrate buffer (pH 4.2) and adding 1 μl/ml hydrogen peroxide just before use) was added at 50 μl well to develop color, and the reaction was stopped 20 minutes thereafter by adding 5% SDS solution at 50 μl/well. Thereafter, absorbance at 415 nm was measured.
For orientation: In an ELISA, binding on a coated surface is turned into a signal by an enzyme label.

Assay [2] concerns the target T2, biotinylated Compound 1 (biotinylated CCR4 partial peptide) (human, also: biotinylated, site not given here).
T2 peptide: DESIYSNYYLYESIPKPC
The experiment in a line: BIAcore 2000, 4 ug/ml antibody over biotinylated Compound 1 on SA sensor tip. On the procedure: In order to measure the binding activity in more detail, the binding activity of various purified antibodies was measured by using BIAcore 2000 (manufactured by BIACORE) as follows. In this case, HBS-EP (manufactured by BIACORE) was used as the buffer for diluting samples and for the measurement. First, 5 μl of 0.01 μg/ml solution of Compound 1 as a biotinylated CCR4 partial peptide was added to a sensor tip SA (manufactured by BIACORE) at a flow rate of 5 μl/minute and immobilized on the sensor tip.
To the prepared biotinylated compound 1-immobilized sensor tip, 20 μl of 4 μg/ml solution of each of the purified antibodies was added at a flow rate of 5 μl/minute, and after completion of the addition, the dissociation reaction was monitored for 4 minutes and then the sensor tip surface was regenerated by adding 5 μl of 10 mM HCl twice. In this way, a binding reaction curve (sensorgram) for Compound 1 was obtained.
On the technique in general: Surface plasmon resonance follows binding to a sensor surface in real time, without labels.

Assay [3] concerns the target T1, BSA-Compound 1 conjugate (human CCR4 …). The experiment in a line: ELISA on BSA-Compound 1 conjugate, reference antibody.
The target in assay [4] is T3, human CCR4 on CCR4/EL-4 cells (CCR4-high-expressing cells) (human, UniProt P51679 1-360).
T3 construct: also called human CCR4-high-expressing cell
T3 sequence: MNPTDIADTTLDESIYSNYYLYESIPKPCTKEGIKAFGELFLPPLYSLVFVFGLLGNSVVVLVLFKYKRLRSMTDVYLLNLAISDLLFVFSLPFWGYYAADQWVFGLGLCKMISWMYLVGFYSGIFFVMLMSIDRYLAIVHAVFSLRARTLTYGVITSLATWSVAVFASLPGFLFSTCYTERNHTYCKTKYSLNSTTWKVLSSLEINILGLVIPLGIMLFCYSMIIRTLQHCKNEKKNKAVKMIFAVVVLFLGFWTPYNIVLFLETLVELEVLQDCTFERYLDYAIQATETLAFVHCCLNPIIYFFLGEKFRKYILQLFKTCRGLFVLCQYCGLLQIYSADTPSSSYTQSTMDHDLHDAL
The assay can be described thus: flow cytometry (immunofluorescent method) on CCR4/EL-4 cells, 10 ug/ml antibody, reference antibody. As to the method: Into a 96 well plate, 2×10⁵ or more of CCR4/EL-4 cells, CCR4-high-expressing cells obtained in Reference Example 1, were dispensed. An antibody solution was prepared by diluting each of the purified antibodies and a human immunoglobulin (manufactured by Welfide) for preventing nonspecific staining to give concentrations of 10 μg/ml and 3.75 mg/ml, respectively, with a buffer for FACS (1% BSA-PBS, 0.02% EDTA, 0.05% NaN₃), and the antibody solution was added at 100 μl/well and allowed to react for 30 minutes in ice. As a negative control, an anti-human IL-5 receptor α chain antibody (WO97/10354) was reacted with the same concentration. After washing twice with 200 μl/well of the buffer for FACS, a PE-labeled anti-human IgG antibody (manufactured by Coulter) diluted 100 times was added at 50 μl/well. After the reaction in ice under shading and subsequent washing three times with 200 μl/well of the buffer for FACS, the reaction product was suspended in 500 µl of the buffer for FACS and the fluorescence intensity was measured by using a flow cytometer.
A general note: In flow cytometry, cells or beads pass a laser one at a time.

No end group written: not given here.

B1: anti-CCR4 CDR-grafted antibody Gal0LV0 (antibody, V domains shown)
VH: EVQLVESGGDLVQPGRSLRLSCAASGFIFSNYGMSWVRQAPGKGLEWVATISSASTYSYYPDSVKGRFTISRDNAKNSLYLQMNSLRVEDTALYYCARHSDGNFAFGYWGQGTLVTVSS
VL: DIVMTQSPLSLPVTPGEPASISCRSSRNIVHINGDTYLEWYLQKPGQSPQLLIYKVSNRFSGVPDRFSGSGSGTDFTLKISRVEAEDVGVYYCFQGSLLPWTFGQGTKVEIK
notes: Expressed from pKANTEX93 with human CH and CL; CDR alone grafted
As to B1, the binding result in assay [1] and in assay [2] was “binds” throughout.

B2: anti-CCR4 CDR-grafted antibody HV0LV0 (antibody, V domains shown)
VH: EVQLVESGGGLVQPGGSLRLSCAASGFTFSNYGMSWVRQAPGKGLEWVSTISSASTYSYYPDSVKGRFTISRDNSKNTLYLQMNSLRAEDTAVYYCARHSDGNFAFGYWGQGTLVTVSS
VL: DIVMTQSPLSLPVTPGEPASISCRSSRNIVHINGDTYLEWYLQKPGQSPQLLIYKVSNRFSGVPDRFSGSGSGTDFTLKISRVEAEDVGVYYCFQGSLLPWTFGQGTKVEIK
notes: Expressed from pKANTEX93 with human CH and CL
With B2, in assay [1], the binding result is “binds”.

B3: anti-CCR4 human chimeric antibody KM2760 (antibody, V domains shown)
VH: EVQLVESGGDLMKPGGSLKISCAASGFIFSNYGMSWVRQTPDMRLEWVATISSASTYSYYPDSVKGRFTISRDNAENSLYLQMNSLRSEDTGIYYCGRHSDGNFAFGYWGRGTLVTVSA
VL: DVLMTQTPLSLPVSLGDQASISCRSSRNIVHINGDTYLEWYLQRPGQSPKLLIYKVSNRFSGVPDRFSGSGSGTDFTLKISRVEAEDLGVYYCFQGSLLPWTFGGGTRLEIRR
notes: Produced by transformant KM2760 (FERM BP-7054); also called anti-CCR4 chimeric antibody KM2760
As to B3, the binding result in assay [3] and in assay [4] was “binds” throughout.
